Experimental data: article PMC10313822, “Disruption of ER ion homeostasis maintained by an ER anion channel CLCC1 contributes to ALS-like pathologies” (Cell Research, 2023)
Changes are numbered by the printed parent chain. In names and notes the source's numbering stands.

Target: the molecule itself
Test: SEC; Superose 6 Increase, TBS (50 mM Tris-HCl pH 7.4, 150 mM NaCl) with 0.025% DDM and 2 mM DTT; size estimated from standard markers

B1: purified full-length mouse CLCC1, His-tagged (natural protein, UniProt Q99LI2 19-539, looked up)
chain: HDDDWIDPTDMLNYDAASGTMRKSQVRSGTSEKKEVSPDSSEAEELSDCLHRLDSLTHKVDSCEKKKMKDYESQSNPVFRRYLNKILIEAGKLGLPDENKVEMRYDAEILLSRQTLLEIQKFLSGEEWKPGALDDALSDILINFKCHDSEAWKWQFEDYFGVDPYNVFMVLLCLLCLVVLVATELWTYVRWYTQMKRIFIISFLLSLAWNWIYLYKMAFAQHQANIAGMEPFDNLCAKKMDWTGSLWEWFTSSWTYKDDPCQKYYELLIVNPIWLVPPTKALAITFTNFVTEPLKHIGKGAGEFIKALMKEIPVLLQIPVLAILALAVLSFCYGAGRSVPMLRHFGGPDREPPRALEPDDRRRQKGLDYRLHGGAGDADFSYRGPAGSIEQGPYDKMHASKRDALRQRFHSGNKSPEVLRAFDLPDTEAQEHPEVVPSHKSPIMNTNLETGELPGESTPTEYSQSAKDVSGQVPSAGKSSPTVDKAQLKTDSECSPPGGCPPSKEAAVAAHGTEPVSSPCG
notes: CLCC1, mouse, full length (NM_145543.2; 539 residues by the printed limits of the C-terminal polypeptide 355-539); The predicted signal peptide may be removed in insect cells; also called mCLCC1; WT mCLCC1; source: High Five insect cells (baculovirus), purified (Ni-NTA, Superose 6 Increase); not shown: His10, C-terminal, kept
binding result: binds

B2: C350F mutant mouse CLCC1, purified (natural protein, UniProt Q99LI2 19-539, looked up)
chain: B1 chain with C332F
notes: CLCC1, mouse, full length, with C350F; also called C350F mCLCC1; source: High Five insect cells (baculovirus), purified (Ni-NTA, Superose 6 Increase)
binding result: binds
